# Results from patent publication US20260055369A1, “METHOD FOR GENERATING CELLS OF THE T CELL LINEAGE WITH ENGINEERING BROADLY REACTIVE HUMAN NOTCH LIGAND” (H. Lee Moffitt Cancer Center and Research Institute, Inc., priority 2022, published 2026).
# T1: mouse Notch1 (EGF6-13) (Mus musculus, UniProt Q01705)
# T1 construct: mouse Notch1 (EGF6-13, residues 221-526); gp67 signal peptide (N); made in house; host or cells: HiFive Trichoplusia ni insect cells (baculovirus)
# T1 sequence (Q01705 221-526): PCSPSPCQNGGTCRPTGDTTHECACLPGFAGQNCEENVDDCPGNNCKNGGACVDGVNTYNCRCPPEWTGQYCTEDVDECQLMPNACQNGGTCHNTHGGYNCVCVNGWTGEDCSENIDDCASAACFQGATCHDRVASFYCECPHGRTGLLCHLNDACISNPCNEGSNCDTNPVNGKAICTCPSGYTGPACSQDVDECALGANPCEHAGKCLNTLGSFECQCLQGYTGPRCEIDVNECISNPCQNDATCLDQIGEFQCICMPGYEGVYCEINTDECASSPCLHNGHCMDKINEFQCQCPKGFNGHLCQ
# Key:
# [1] = target: T2, endogenous Notch1 (Homo sapiens, UniProt P46531); assay: Western blot for cleaved Notch1 ICD in U2OS and MCF-7 cells; type: cell-based; settings: 50 nM C-terminally anchored, 24 hours
# T2 construct: cells expressing endogenous levels of Notch1; endogenous in cells; host or cells: U2OS; MCF-7
# T2 sequence (P46531 19-2555): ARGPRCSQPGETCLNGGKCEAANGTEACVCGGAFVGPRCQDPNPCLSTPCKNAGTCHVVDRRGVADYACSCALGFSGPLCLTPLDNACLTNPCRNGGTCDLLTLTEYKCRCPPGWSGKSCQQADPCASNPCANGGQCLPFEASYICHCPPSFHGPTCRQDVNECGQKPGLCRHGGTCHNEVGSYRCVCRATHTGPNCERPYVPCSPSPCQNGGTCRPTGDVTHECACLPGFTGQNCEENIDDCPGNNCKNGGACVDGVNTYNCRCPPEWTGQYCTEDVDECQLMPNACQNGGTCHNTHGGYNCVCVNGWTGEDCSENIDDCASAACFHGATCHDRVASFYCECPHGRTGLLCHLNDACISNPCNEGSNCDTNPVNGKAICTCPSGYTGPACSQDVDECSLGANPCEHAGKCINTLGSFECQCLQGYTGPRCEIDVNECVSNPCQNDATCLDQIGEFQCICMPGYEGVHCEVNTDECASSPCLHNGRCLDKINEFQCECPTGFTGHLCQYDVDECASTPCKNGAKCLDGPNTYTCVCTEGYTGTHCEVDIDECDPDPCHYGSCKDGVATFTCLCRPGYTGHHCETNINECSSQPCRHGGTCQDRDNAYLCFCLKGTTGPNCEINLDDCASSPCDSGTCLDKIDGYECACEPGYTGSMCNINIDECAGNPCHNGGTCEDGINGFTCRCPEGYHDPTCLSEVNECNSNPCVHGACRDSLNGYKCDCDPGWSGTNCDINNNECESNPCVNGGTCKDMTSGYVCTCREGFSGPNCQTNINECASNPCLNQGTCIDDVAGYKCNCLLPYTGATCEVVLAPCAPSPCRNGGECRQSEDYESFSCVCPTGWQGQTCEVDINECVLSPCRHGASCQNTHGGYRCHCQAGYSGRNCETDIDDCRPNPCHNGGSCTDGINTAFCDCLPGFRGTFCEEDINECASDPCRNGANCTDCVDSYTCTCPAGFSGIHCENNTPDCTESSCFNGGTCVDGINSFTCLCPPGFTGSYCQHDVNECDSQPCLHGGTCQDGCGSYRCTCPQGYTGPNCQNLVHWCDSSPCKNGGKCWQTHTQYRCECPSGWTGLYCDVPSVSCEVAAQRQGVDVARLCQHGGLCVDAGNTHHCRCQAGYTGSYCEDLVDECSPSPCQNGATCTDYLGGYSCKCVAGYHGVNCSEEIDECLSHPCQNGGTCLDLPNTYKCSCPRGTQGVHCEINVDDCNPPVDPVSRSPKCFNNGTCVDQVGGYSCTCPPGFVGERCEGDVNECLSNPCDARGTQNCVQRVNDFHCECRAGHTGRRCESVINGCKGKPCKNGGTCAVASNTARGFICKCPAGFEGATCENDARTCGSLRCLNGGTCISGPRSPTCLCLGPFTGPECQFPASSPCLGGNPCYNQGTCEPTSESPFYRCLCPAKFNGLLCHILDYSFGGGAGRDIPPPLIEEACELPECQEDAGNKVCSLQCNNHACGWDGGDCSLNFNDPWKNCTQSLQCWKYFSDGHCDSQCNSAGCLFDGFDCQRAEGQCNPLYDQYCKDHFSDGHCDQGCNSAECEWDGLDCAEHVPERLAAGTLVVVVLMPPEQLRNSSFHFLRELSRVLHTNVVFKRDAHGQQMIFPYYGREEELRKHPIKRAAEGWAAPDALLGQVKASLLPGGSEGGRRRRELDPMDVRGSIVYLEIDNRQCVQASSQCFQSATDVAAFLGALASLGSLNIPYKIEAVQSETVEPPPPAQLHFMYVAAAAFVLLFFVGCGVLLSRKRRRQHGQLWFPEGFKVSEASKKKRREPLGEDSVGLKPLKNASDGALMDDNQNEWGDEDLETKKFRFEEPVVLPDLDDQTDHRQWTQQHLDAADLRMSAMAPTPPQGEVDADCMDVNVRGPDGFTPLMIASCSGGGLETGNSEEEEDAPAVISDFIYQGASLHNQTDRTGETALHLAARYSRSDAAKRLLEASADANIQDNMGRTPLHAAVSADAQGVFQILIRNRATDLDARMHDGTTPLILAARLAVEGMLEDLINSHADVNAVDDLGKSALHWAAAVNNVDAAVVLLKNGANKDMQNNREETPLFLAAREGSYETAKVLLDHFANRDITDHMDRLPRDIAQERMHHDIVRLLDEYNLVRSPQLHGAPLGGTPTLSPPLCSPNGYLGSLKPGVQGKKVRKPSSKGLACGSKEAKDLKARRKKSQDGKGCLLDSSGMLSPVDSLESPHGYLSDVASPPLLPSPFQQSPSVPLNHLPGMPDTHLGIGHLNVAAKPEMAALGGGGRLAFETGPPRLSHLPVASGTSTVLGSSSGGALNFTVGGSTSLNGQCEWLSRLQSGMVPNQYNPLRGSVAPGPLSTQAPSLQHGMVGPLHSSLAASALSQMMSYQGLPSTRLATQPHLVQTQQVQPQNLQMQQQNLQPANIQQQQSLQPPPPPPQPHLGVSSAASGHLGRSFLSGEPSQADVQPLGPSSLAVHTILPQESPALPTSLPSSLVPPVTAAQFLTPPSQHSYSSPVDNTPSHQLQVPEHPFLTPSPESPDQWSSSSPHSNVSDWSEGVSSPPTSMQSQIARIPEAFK
# Procedure: For Notch activation in U2OS and MCF-7 cells, WT DLL4 and Delta^MAX biotinylated ligands were immobilized at 50 nM in 6-well streptavidin-coated plates following a scaled-up protocol of the one described before. After 24 hours of stimulation, cells were lysed in Laemmli […] buffer (40% glycerol, 4% SDS, 250 mM Tris-HCl, 0.02% bromophenol blue, and 20% β-mercaptoethanol). Cell lysates were heated at 100° C. for 5 min, centrifuged at 21,000×g for 10 min at 4° C., and supernatants stored at −20° C. Proteins were separated by SDS-PAGE (12% Mini-PROTEAN TGX Precast Protein Gels, Bio-Rad) and transferred to PVDF membranes using an iBlot2 Gel Transfer Device (Thermo Fisher Scientific). The membranes were blocked in 3% BSA+0.1% TBS-Tween. Primary antibodies were anti-cleaved Notch1 (Val1744 rabbit mAb, Cell Signaling Technology, 1:1,000), and β-Actin (rabbit pAb, Cell Signaling Technology, 1:1,000). Secondary antibody anti-Rabbit IgG conjugated to HRP (Goat mAb, Vector Laboratories, 1:8,000) was used for detection of proteins using SuperSignal West Pico PLUS Chemiluminescent Substrate (Thermo Fisher Scientific). Images were acquired using an Amersham Imager 600 (GE Healthcare), and contrast adjusted with a curves layer.
# [2] = test system: Notch1; assay: Notch inhibition assay in co-culture format (CHO-K1 N1-Gal4 with HEK293T expressing WT DLL4); type: cell-based; settings: co-culture 1:1 with HEK293T expressing WT DLL4; read-out: IC50 for inhibition of Notch1 activation by cellular DLL4
# Procedure: For inhibition of CHO-K1 N1-Gal4 cells with DAPT and Delta^MAX, the experiment was set-up following the protocol described above with the exception that CHO-K1 N1-Gal4 reporters were incubated with HEK293T-expressing WT DLL4 for Notch activation. Three-fold serial dilutions of soluble Delta^MAX and DAPT were prepared in DPBS starting at 6,000 nM. For DAPT, a stock solution of 100 μM in 8% DMSO was prepared before serial dilutions in DPBS. Appropriate DMSO controls were also assayed for cytotoxicity. Final DMSO concentration in the wells was maintained below 1%. Thirty thousand signal senders and pre-blocked signal receivers (100 μL each) were incubated for 24 hours at 37° C. and 5% CO2 before analysis by flow cytometry. Maximum Notch activation (100%) was set in the absence of soluble inhibitors and normalized to wells containing CHO-K1 N1-Gal4 cells and HEK293T lacking expression of WT DLL4. Mean fluorescence intensity is represented as percentage relative to Notch activation in the absence of inhibitors±s.d. of three independent biological replicates.
# [3] = target: T3, Notch1 (Homo sapiens, UniProt P46531); assay: Immunoblot of cleaved Notch1 in CD8+ T cells; type: cell-based; settings: CD8+ T cells after 96 hours with K32 cells
# T3 construct: endogenous in cells; host or cells: primary human CD8+ T cells from PBMC
# T3 sequence (P46531 19-2555): as above
# From the text: For detection of Notch activation in CD8^+ T cells, following co-culture with K32 cell lines, CD8^+ T cells were positively enriched by Magnisort Human CD8^+ T cell positive selection Kit (Invitrogen). Nuclear fraction was isolated using NE-PER Nuclear and Cytoplasmic extraction kit (ThermoFisher). Equal protein amounts of nuclear cell lysates were run on 4-20% gradient Tris-glycine gels (Novex-Invitrogen), transferred to PVDF membranes using an iBlot Gel Transfer Device (ThermoFisher), and immunoblotted with antibodies anti-cleaved Notch1 (Val1744 rabbit mAb, Cell Signaling Technology, 1:1,000), anti-Notch2 (D76A6 rabbit mAb, Cell Signaling Technology, 1:1,000), and anti-β Actin (mouse mAb, Sigma, 1:20,000). Secondary antibodies anti-IgG (anti-rabbit or anti-mouse, GE Healthcare, 1:5,000) conjugated to horseradish peroxidase (HRP) were used for detection of proteins using ECL Western Blot Substrate Reagent (Thermo Fisher Scientific). Images were acquired using a Chemidoc Imaging System and analyzed with Image-Lab software (Bio-Rad).
# [4] = target: T1, mouse Notch1 (EGF6-13); assay: SPR determination of equilibrium dissociation constants; type: binding; settings: mNotch1 EGF6-13; read-out: dissociation constant (KD)
# Procedure: Equilibrium dissociation constants were determined by surface plasmon resonance using a Biacore T200 instrument (GE Healthcare). Approximately 100 resonance units (RU) of biotinylated Notch extracellular fragments (Notch1 (EGF6-13), Notch2 (EGF6-13), Notch3 (EGF5-12), Notch4 (7-12), and mouse Notch1 (EGF6-13)) were immobilized on individual flow cells at 5 μl/min using a streptavidin-coated sensor chip (Series S Sensor chip SA, GE Healthcare). Three-fold serial dilutions of recombinant DLL4 proteins (N-EGF5) starting at 50 μM (WT DLL4), 18 μM (DLL4.v2), and 6 μM (DLL4.v1 and Delta^MAX) were flowed over the chip at 25° C. in SPR buffer (20 mM HEPES pH 7.4, 150 mM NaCl, 1 mM calcium chloride, 0.1% BSA supplemented with 0.005% surfactant P20). Association (“on-rate”) and dissociation (“off-rate”) phases were performed at 10 μl/min for 120 seconds and 300 seconds, respectively. The sensor chip was regenerated after each injection with 30-second washes of 2.25M Magnesium Chloride containing 25% Ethylene Glycol at 50 μL/min. Data collection rate was performed at 10 Hz, and curves were reference-subtracted from a flow cell containing 100 RU of a negative control non-related protein (biotinylated mouse RNF43 PA domain). The maximum RU for each experiment was normalized to a value of 100% and plotted as a function of concentration using Prism 9 software (GraphPad). Steady-state binding and kinetic curves were fitted using the Biacore T200 evaluation software to a 1:1 Langmuir model to determine the KD values.
molecule,measurement,setting,value
Delta^MAX: engineered human DLL4 consensus variant with 10 mutations combining DLL4.v1 and DLL4.v2 mutations; sequence matches SEQ ID NO: 4/10 (protein) SSVFQLQLQEFINERGVLASGRPCEPGCRTFFRVCLKHFQAVVSPGPCTFGTVSTPVLGTNSFAVRDDSSGGGRNPLQLPLNFTWPGTFSLIIEAWHAPGDDLRPEALPPDALISKFAIQGSLAVGQNWLLDEQTSTLTRLRYSYRVICSDNYYGDNCSRLCKKRNDYFGHYVCQPDGNPSCLPGWTGEYCQQPICLSGCHEQNGYCSKPAECLCRPGWQGRLCNECIPHPGCRHGTCSTPWQCLCDEGWGGLYCDQDLNYCTHHSPCKNGATCRNSGPRSYTCTCRPGYTGVDCELELSECDSNPCRNGGSCKDQEDGYHCLCPPGYYGLHCEHSTLSCADSPCFNGGSCRERNQGANYACECPPNFTGSNCE,Notch1 activation (cleaved Notch1 ICD) vs WT DLL4,[1]; MCF-7 cells,much more potently
same,Notch1 activation (cleaved Notch1 ICD) vs WT DLL4,[1]; U2OS cells,much more potently
same,IC50,[2],400 nM
same,Notch1 activation (cleaved ICD) relative to WT DLL4,[3],increased
same,Kd,[4],25 nM
